{
  "source": "paper PMC8990011",
  "molecular_target": "Bax, endogenous in HeLa cells (human (endogenous in HeLa)) (UniProt Q07812)",
  "sequence (Q07812 whole entry)": "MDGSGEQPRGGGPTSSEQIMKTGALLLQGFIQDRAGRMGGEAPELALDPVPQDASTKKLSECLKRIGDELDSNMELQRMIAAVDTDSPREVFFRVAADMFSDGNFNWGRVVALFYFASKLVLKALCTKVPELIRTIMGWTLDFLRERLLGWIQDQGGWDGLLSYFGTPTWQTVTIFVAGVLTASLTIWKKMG",
  "data": [
    {"substance": "6xHis-Bcl-xL^K87D (from UniProt Q07817-1 1-233) (natural protein)", "values": [
      {"measurement": "inhibition of cBid- and Bim-triggered Bax-pore formation in ANTS/DPX liposomes (100 nM Bax, 20 nM cBid or Bim, 8-500 nM Bcl-xL protein), IC50", "result": 80, "unit": "nM"}
    ]}
  ]
}
